From patent publication US20020197616A1 (REGENTS OF THE UNIVERSITY OF MICHIGAN, published 2002)

Experiments:
[1] = biological target: the molecule itself; assay: method not described ('our observations'); self-association
[2] = biological target: T1, Nod2 (wild-type, HA-tagged) (human, UniProt Q9HC29 1-1040); assay: co-immunoprecipitation, HEK293T extracts
T1 construct: Expressed in HEK293T cells and tested in cell extracts by co-immunoprecipitation; also called Nod2a; wt Nod2; not shown: HA tag; the plasmid is named both pcDNA3-Nod2-HA and pcDNA3-HA-Nod2, so the end that carries the ta
Description: Proteins co-immunoprecipitated with anti-HA antibody were detected with anti-Flag antibody. […] Proteins in total lysate were detected by anti-Flag and anti-HA monoclonal antibody, respectively. […]

B1: Nod2 lacking the LRRs (1-744) (other)
chain: MGEEGGSASHDEEERASVLLGHSPGCEMCSQEAFQAQRSQLVELLVSGSLEGFESVLDWLLSWEVLSWEDYEGFHLLGQPLSHLARRLLDTVWNKGTWACQKLIAAAQEAQADSQSPKLHGCWDPHSLHPARDLQSHRPAIVRRLHSHVENMLDLAWERGFVSQYECDEIRLPIFTPSQRARRLLDLATVKANGLAAFLLQHVQELPVPLALPLEAATCKKYMAKLRTTVSAQSRFLSTYDGAETLCLEDIYTENVLEVWADVGMAGPPQKSPATLGLEELFSTPGHLNDDADTVLVVGEAGSGKSTLLQRLHLLWAAGQDFQEFLFVFPFSCRQLQCMAKPLSVRTLLFEHCCWPDVGQEDIFQLLLDHPDRVLLTFDGFDEFKFRFTDRERHCSPTDPTSVQTLLFNLLQGNLLKNARKVVTSRPAAVSAFLRKYIRTEFNLKGFSEQGIELYLRKRHHEPGVADRLIRLLQETSALHGLCHLPVFSWMVSKCHQELLLQEGGSPKTTTDMYLLILQHFLLHATPPDSASQGLGPSLLRGRLPTLLHLGRLALWGLGMCCYVFSAQQLQAAQVSPDDISLGFLVRAKGVVPGSTAPLEFLHITFQCFFAAFYLALSADVPPALLRHLFNCGRPGNSPMARLLPTMCIQASEGKDSSVAALLQKAEPHNLQITAAFLAGLLSREHWGLLAECQTSEKALLRRQACARWCLARSLRKHFHSIPPAAPGEAKSVHAMPGFIWLIR
notes: also called Nod2ΔLRR; Nod2 (1-744)
binding result [1]: binds

B2: Bcl-10 (other, UniProt O95999 1-233, looked up)
chain: MEPTAPSLTEEDLTEVKKDALENLRVYLCEKIIAERHFDHLRAKKILSREDTEEISCRTSSRKRAGKLLDYLQENPKGLDTLVESIRREKTQNFLIQKITDEVLKLRNIKLEHLKGLKCSSCEPFPDGATNNLSRSNSDESNFSEKLRASTVMYHPEGESSTTPFFSTNSSLNLPVLEVGRTENTIFSSTTLPRPGDPGAPPLPPDLQLEEEGTCANSSEMFLPLRSRTVSRQ
notes: Construct and tag not described
binding result [2]: no binding
